Here are results for five molecules from US11981935B2, “7β-hydroxysteroid dehydrogenase mutants and process for the preparation of ursodeoxycholic acid” (PharmaZell GmbH, priority 2010, dated 2024).

In series [1] the target is 7β-HSDH (Collinsella aerofaciens, UniProt A4ECA9). Nature of the series: Photometric identification of 7β-HSDH activity (production example 1). It counts as biochemical, Collinsella aerofaciens ATCC 25986. The following applies: 0.1 mM test substance, potassium phosphate buffer 50 mM pH 8, in the presence of NADP+ or NADPH. Here is the method:
For identification of 7β-HSDH activity, the activity was investigated by a photometric method. In a 1 ml cuvette, enzyme and 0.1 mM of test substance (UDCA) were mixed in potassium phosphate buffer (50 mM, pH8).

The target of series [2] is 7β-HSDH from Collinsella aerofaciens DSM 3979 (Collinsella aerofaciens, UniProt A4ECA9). It counts as biochemical.
The target of series [3] is T1, 7β-HSDH from Collinsella aerofaciens, wild type (WT), SEQ ID NO:2 (Collinsella aerofaciens, UniProt A4ECA9).
T1 sequence (A4ECA9 1-263): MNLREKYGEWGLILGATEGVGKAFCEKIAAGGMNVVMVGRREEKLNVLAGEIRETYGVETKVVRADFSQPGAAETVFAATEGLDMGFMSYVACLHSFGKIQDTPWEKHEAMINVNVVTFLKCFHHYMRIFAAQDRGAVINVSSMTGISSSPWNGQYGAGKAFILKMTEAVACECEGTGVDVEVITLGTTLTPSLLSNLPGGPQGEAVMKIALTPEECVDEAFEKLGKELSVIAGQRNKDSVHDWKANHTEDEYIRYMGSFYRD
Nature of the series: Kinetic measurements of 7β-HSDH variants (microtiter plate photometer, cell lysate). The following applies: 100 μM NADPH, varied DHCA, Michaelis-Menten model with substrate inhibition.

Series [4] concerns the target T2, Collinsella aerofaciens 7β-HSDH mutant G39A (parent SEQ ID NO:2) (Collinsella aerofaciens, UniProt A4ECA9, G39A).
T2 sequence (A4ECA9 1-263 G39A): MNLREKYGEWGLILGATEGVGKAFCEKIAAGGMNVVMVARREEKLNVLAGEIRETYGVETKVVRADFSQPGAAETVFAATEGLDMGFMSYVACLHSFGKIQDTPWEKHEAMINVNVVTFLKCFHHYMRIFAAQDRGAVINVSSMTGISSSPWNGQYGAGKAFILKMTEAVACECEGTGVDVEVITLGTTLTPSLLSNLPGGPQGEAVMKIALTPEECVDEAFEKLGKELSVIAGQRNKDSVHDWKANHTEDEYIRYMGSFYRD
Described as above. The following applies: 100 μM NADPH, varied DHCA, Michaelis-Menten model with substrate inhibition.

The target of series [5] is T3, Collinsella aerofaciens 7β-HSDH mutant G39S (parent SEQ ID NO:2) (Collinsella aerofaciens, UniProt A4ECA9, G39S).
T3 sequence (A4ECA9 1-263 G39S): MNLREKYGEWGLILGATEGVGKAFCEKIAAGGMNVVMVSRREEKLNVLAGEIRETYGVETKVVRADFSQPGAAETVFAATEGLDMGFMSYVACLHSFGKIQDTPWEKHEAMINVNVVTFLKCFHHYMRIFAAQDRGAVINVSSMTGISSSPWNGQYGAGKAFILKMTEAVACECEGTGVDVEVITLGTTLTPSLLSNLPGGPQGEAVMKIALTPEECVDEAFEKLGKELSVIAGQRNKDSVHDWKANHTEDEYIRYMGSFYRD
Described as above. The following applies: 100 μM NADPH, varied DHCA, Michaelis-Menten model with substrate inhibition.

The target of series [6] is T4, 7β-HSDH from Collinsella aerofaciens DSM 3979 (ATCC 25986), wild type, SEQ ID NO:2 (Collinsella aerofaciens, UniProt A4ECA9).
T4 construct: The gene coding for 7β-HSDH was once again amplified from the genomic DNA by PCR; made in house; host or cells: E. coli BL21(DE3), pET-28a(+)
T4 sequence (A4ECA9 1-263): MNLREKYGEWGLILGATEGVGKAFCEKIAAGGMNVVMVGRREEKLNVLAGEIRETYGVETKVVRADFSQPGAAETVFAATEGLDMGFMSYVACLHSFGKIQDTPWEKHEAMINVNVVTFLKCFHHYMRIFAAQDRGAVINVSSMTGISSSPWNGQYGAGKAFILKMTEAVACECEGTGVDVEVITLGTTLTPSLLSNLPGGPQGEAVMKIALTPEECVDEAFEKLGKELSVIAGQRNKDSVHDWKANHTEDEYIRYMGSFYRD
The series can be described thus: Enzyme assay and kinetic analysis of 7β-HSDH (Lineweaver-Burk). It counts as biochemical. The following applies: pH 8, 25° C.

Substrate in series [7]: NC(=O)c1ccc[n+]([C@@H]2O[C@H](COP(=O)([O-])OP(=O)(O)OC[C@H]3O[C@@H](n4cnc5c(N)ncnc54)[C@H](O)[C@@H]3O)[C@@H](O)[C@H]2O)c1
The series can be described thus: Kinetic constants of FDH (characterization of the mutant D221G). It counts as biochemical, Mycobacterium vaccae N10. The following applies: 37.0 °C. The source says: (§1) The following vector constructs were used • pET22b(+) 7β-HSDH: a pET22b(+) vector into which the 7β-HSDH from Collinsella aerofaciens ATCC 25986 had been cloned via the Nde I and Hind III cleavage sites in the usual way. • pET22b(+) 3α-HSDH: a pET22b(+) vector into which the 3α-HSDH from Comamonas testosteroni had been cloned via the Nde I and EcoR I cleavage sites in the usual way (Oppermann et al., J Biochem, 1996, 241(3): 744-749). • pET21a(+) FDH D221G (cf. FIG. 4a): a pET21a(+) vector into which the formate dehydrogenase from Mycobacterium vaccae N10 had been cloned via the Nde I and EcoR I cleavage sites. With site-directed mutagenesis, the aspartate residue (D) at position 221 (without taking into account methionine in position 1) or position 222 (counting from methionine in position 1; cf. SEQ ID NO: 15, 19, 35) of formate dehydrogenase was replaced with a glycine residue (cf. production example 4, below). Formate dehydrogenase carries, at position 1202 of the nucleotide sequence, a single base deletion, which leads to exchange of the last amino acid valine for an alanine. Simultaneously, this base deletion leads to switching-off of the stop codon and to activation of the His·Tag that was originally outside of the reading frame (cf. SEQ ID NO: 34 and 35). • pET21a(+) 7β-HSDH: a pET21a(+) vector, into which the 7β-HSDH from Collinsella aerofaciens ATCC 25986 had been cloned via the Nde I and Xho I cleavage sites in the usual way • pET21a(+) FDH D221G 7β-HSDH (cf. FIG. 4b) • pET21a(+) FDH 7β-HSDH(G39A) 3α-HSDH (cf. FIG. 8) • pCOLA(mod) 3α-HSDH (cf. FIG. 5) Microorganisms
(§2) The production of an FDH mutant, which can regenerate not only NADH, but also NADHP, will be explained in more detail with the mutant D221G.
(§3) This can lead to repulsion of the phosphate group in the NADP^+, which is also negatively charged. The aspartate is therefore replaced with the small uncharged amino acid residue glycine (G).
(§4) First an LB preculture was inoculated from frozen stored material or with a colony from an agar plate and the preculture was incubated overnight. Incubation was carried out at 37° C. and 250 rpm. The OD of the preculture was determined and the culture was inoculated to an OD of 0.1. On reaching an OD of 0.5-1 (after about 2.5 h), it was induced with IPTG (final concentration 1 mM). The cells were harvested three hours after induction.
(§5) The cells were disrupted mechanically with glass beads. For this, 0.5 mL of glass beads were added to 0.5 mL of cell sample in a 1.5-mL reaction vessel and the reaction vessel was shaken for 3 min at maximum frequency (30 s^−1) in a Retsch vibratory mill. After cell maceration, the glass beads were centrifuged off (2 min, 13000 rpm). Before and after maceration, the culture was put on ice, to minimize protein denaturation through heating of the sample in the vibratory mill. This maceration protocol is optimized for the use of samples frozen at −20° C.
(§6) Summary of kinetic constants of FDH at pH 6, 7 and 8.

Substrate in series [8]: NC(=O)c1ccc[n+]([C@@H]2O[C@H](COP(=O)([O-])OP(=O)(O)OC[C@H]3O[C@@H](n4cnc5c(N)ncnc54)[C@H](OP(=O)(O)O)[C@@H]3O)[C@@H](O)[C@H]2O)c1
The description is as above. It counts as biochemical, Mycobacterium vaccae N10. The following applies: 37.0 °C.
Source text: as §1, §2, §3, §4, §5, §6

Substrate in series [9]: O=CO
The series is described as above. The following applies: 37.0 °C. It counts as biochemical, Mycobacterium vaccae N10.
Source text: as §1, §2, §3, §4, §5, §6

A short description of series [10]: Preparative biotransformation of 7-keto-LCA by 7β-HSDH with ADH regeneration, HPLC. It counts as biochemical, Collinsella aerofaciens DSM 3979. The following applies: isolated enzyme with ADH and 2-propanol for NADPH regeneration, 24° C., 24 hours.
Series [11] is classed as biochemical, Collinsella aerofaciens. The following applies: 100 μM NADPH.
Series [12] can be described thus: Photometric activity of 7β-HSDH variants with NADPH or NADH (production example 7). It counts as biochemical, Collinsella aerofaciens.
Where [13] appears, read: other: pH 6, substrate sodium formate, pH 6.0.
Setting [14] is: other: pH 7, substrate sodium formate, pH 7.0.
[15] abbreviates: other: pH 8, substrate sodium formate, pH 8.0.

With `C[C@H](CCC(=O)O)[C@H]1CC[C@H]2[C@@H]3C(=O)C[C@@H]4CC(=O)CC[C@]4(C)[C@H]3CC(=O)[C@]12C` [DHCA, Dehydrocholic acid], in series [1], the “activity of 7β-HSDH against the test substance” value was 119 U/ml. For the same molecule, the Vmax in [2] was 28.33 U/mg protein; in series [3], 14.6 ± 1.0 U/mg; in series [3] (listed as DCS) it was 14.6 ± 1.0 U/mg; in series [3] (listed as dehydrocholic acid) it was 14.6±1.0 U/mg; in [4] (listed as DCS), 21.0 ± 1.1 U/mg; in series [4] (listed as dehydrocholic acid), 21.0±1.1 U/mg. Also, the Vmax in series [5] (listed as DCS) was determined as 20.7 ± 1.0 U/mg; in [5] (listed as dehydrocholic acid), 20.1±1.0 U/mg. Besides, in [2], the kcat is recorded as 875.35 1 μmol/(μmol × min).

Take `NC(=O)c1ccc[n+]([C@@H]2O[C@H](COP(=O)([O-])OP(=O)(O)OC[C@H]3O[C@@H](n4cnc5c(N)ncnc54)[C@H](O)[C@@H]3O)[C@@H](O)[C@H]2O)c1` [NAD^+]: the kcat result in series [2] and in series [6] was “Traces” throughout.

For `NC(=O)C1=CN([C@@H]2O[C@H](COP(=O)(O)OP(=O)(O)OC[C@H]3O[C@@H](n4cnc5c(N)ncnc54)[C@H](O)[C@@H]3O)[C@@H](O)[C@H]2O)C=CC1` [NADH], the kcat entry in series [2] and in series [6] was “Traces” each time.

B1: Mycobacterium vaccae formate dehydrogenase (FDH) mutant D221G (= D222G of SEQ ID NO:36; SEQ ID NO: 15, 19, 35) (Mycolicibacterium vaccae; D222G) (protein)
chain: MAKVLCVLYDDPVDGYPKTYARDDLPKIDHYPGGQILPTPKAIDFTPGQLLGSVSGELGLREYLESNGHTLVVTSDKDGPDSVFERELVDADVVISQPFWPAYLTPERIAKAKNLKLALTAGIGSDHVDLQSAIDRNVTVAEVTYCNSISVAEHVVMMILSLVRNYLPSHEWARKGGWNIADCVSHAYDLEAMHVGTVAAGRIGLAVLRRLAPFDVHLHYTGRHRLPESVEKELNLTWHATREDMYPVCDVVTLNCPLHPETEHMINDETLKLFKRGAYIVNTARGKLCDRDAVARALESGRLAGYAGDVWFPQPAPKDHPWRTMPYNGMTPHISGTTLTAQARYAAGTREILECFFEGRPIRDEYLIVQGGALAGTGAHSYSKGNATGGSEEAAKFKKAAENSSSVDKLAAALEHHHHHH
notes: single-base deletion at the 3' end gives C-terminal read-through His-tag (last Val to Ala)
In the case of B1, the Km in [7] (setting [13]) was 830 µM; in series [7] (setting [14]), 610 µM; in series [7] (setting [15]), 520 µM; in [8] (setting [13]), 300 µM; in series [8] (setting [14]), 510 µM; in series [8] (setting [15]), 1010 µM. In addition, the Michaelis-Menten constant (Km) came to 46860 µM in series [9] (other: pH 6, cofactor NAD^+, pH 6.0); 45560 µM in series [9] (other: pH 7, cofactor NAD^+, pH 7.0); 59260 µM in series [9] (other: pH 8, cofactor NAD^+, pH 8.0).

B2: 7β-HSDH WT: 7β-hydroxysteroid dehydrogenase from Collinsella aerofaciens ATCC 25986 (DSM 3979), SEQ ID NO:2, NADPH-dependent (protein, listed as Collinsella aerofaciens)
chain: MNLREKYGEWGLILGATEGVGKAFCEKIAAGGMNVVMVGRREEKLNVLAGEIRETYGVETKVVRADFSQPGAAETVFAATEGLDMGFMSYVACLHSFGKIQDTPWEKHEAMINVNVVTFLKCFHHYMRIFAAQDRGAVINVSSMTGISSSPWNGQYGAGKAFILKMTEAVACECEGTGVDVEVITLGTTLTPSLLSNLPGGPQGEAVMKIALTPEECVDEAFEKLGKELSVIAGQRNKDSVHDWKANHTEDEYIRYMGSFYRD
For B2, the “conversion of 7-keto-LCA to UDCA” value in [10] is reported as 90%. In [11], the “maximum attainable enzyme activities (specific enzyme activities at the maxima of the kinetic curves)” value is on record as approximately 13 U/mg. Also, the “enzyme activity at substrate concentration of 10 mM dehydrocholic acid” value in series [11] (10 mM dehydrocholic acid) is reported as approximately 6.7 U/mg. Moreover, in [12] (cofactor NADH), the “Specific activity NADH” value worked out at 0 U/mg and the “Volumetric activity NADH” value was 0 U/ml. In addition, in [12] (cofactor NADPH), the “Specific activity NADPH” value is 5.6 U/mg and the “Volumetric activity NADPH” value was 134 U/ml. Further, the residual activity (23° C., 1500 min) turned out to be 20%. Moreover, where the note is “after 400 min”, the “activity at 30° C. lower than at 23° C.” value is listed as “about 30%”. In addition, for the setting “−20° C., potassium phosphate buffer 50 mM pH 8, some months, repeated freezing and thawing”, the “activity loss during storage” value was “No significant activity loss”.

Broadly, the Km is the substrate concentration at which the rate is half of its maximum. Usually residual activity stands for the activity still measured, relative to the control. Low readings indicate little activity left, high ones much activity left.
